The results in this text go back to article PMC9372576.

Experiment [1] concerns the target GvpA fused to NGFP or CGFP (Halobacterium salinarum) (UniProt P08958). Put plainly: split reporter (BiFC, NanoBiT); split-GFP of A/A with untagged GvpC, GvpN and GvpO co-produced under the P2 promoter (A/A + CNO).
For experiment [2] the target is unchanged. Put plainly: split reporter (BiFC, NanoBiT); split-GFP (NGFP and CGFP of salt-stable mGFP2) in Hfx. volcanii transformants, 24 h 37 °C then 24 h 30 °C; relative fluorescence (rf) against the wild type; the highest of eight tag combinations is given.

GvpA fused to NGFP or CGFP (Halobacterium salinarum), sequence (P08958 whole entry, the tested form may be a part): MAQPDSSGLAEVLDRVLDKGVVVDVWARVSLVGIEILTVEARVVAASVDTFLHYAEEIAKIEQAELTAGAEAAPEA

On to “GvpA fused to NGFP or CGFP (from UniProt P08958 1-76) (natural protein)”, for which the relative fluorescence (rf) is 5.12 LAU/mm^2 in experiment [1] and under 2 LAU/mm^2 in experiment [2].

With “GvpC fused to NGFP or CGFP (from UniProt P24574 1-382) (natural protein)”, in experiment [2], the relative fluorescence (rf) was under 2 LAU/mm^2.
